Assay [1] has as its target ALK4-Fc (Fc-fused ALK4 ligand-binding domain). The assay can be described thus: SPR; Biacore 3000, 25°C; about 500 RU of ALK4-Fc captured on anti-human IgG (Fc) CM5 chip, Fc-free Cripto-1 injected at varying concentrations; HBS/EPS with 0.5 M NaCl and 0.1% BSA, pH 7.4; KD = kd/ka.
Assay [2] deals with Cripto-1 E-Fc (EGF-like domain fused to human IgG1 Fc) (human). Nature of the assay: SPR; Biacore 3000, 25°C; about 500 RU of Cripto-1-Fc construct captured on anti-human IgG (Fc) CM5 chip, Nodal injected at several concentrations; HBS/EPS (0.01 M Hepes, 0.5 M NaCl, 3 mM EDTA, 0.005% Tween 20, pH 7.4) with 0.1% BSA; 50 μL/min; fitted to a 1:1 or bivalent analyte model, KD = kd/ka; apparent.

The target in assay [3] is Cripto-1 NE-Fc (N-terminal and EGF-like domains fused to human IgG1 Fc) (human). The assay is described as above.
Assay [4] concerns the target Cripto-1 EC-Fc (EGF-like and CFC domains fused to human IgG1 Fc) (human). The assay is described as above.
Assay [5] concerns the target full-length Cripto-1-Fc (NEC-Fc), soluble full-length variant lacking the GPI anchor, fused to human IgG1 Fc (human). Described as above.

Chain of full-length Cripto-1-Fc (NEC-Fc), soluble full-length variant lacking the GPI anchor, fused to human IgG1 Fc (human) (P13385 31-163, change not shown): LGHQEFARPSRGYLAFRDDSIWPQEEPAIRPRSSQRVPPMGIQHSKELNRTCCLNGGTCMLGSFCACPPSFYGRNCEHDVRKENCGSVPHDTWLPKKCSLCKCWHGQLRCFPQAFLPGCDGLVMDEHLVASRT

The term koff denotes a measure of how fast the partners let go of each other. Usually kon stands for the rate constant with which the complex forms. Consider “Fc-free Cripto-1 (soluble Cripto-1 from which the Fc fragment had been proteolytically removed) (domain or fragment)”, for which, in assay [1], the Kd turned out to be 79.9 nM, the koff came out at 0.00179 s⁻¹ and the kon worked out at 22400 M⁻¹ s⁻¹.

B1: Nodal (ligand)
chain: HHLPDRSQLCRKVKFQVDFNLIGWGSWIIYPKQYNAYRCEGECPNPVGEEFHPTNHAYIQSLLKRYQPHRVPSTCCAPVKTKPLSMLYVDNGRVLLDHHKDMIVEECGCL
Consider B1, for which the Kd in assay [2] is 27.8 nM; in assay [3], 10.4 nM; in assay [4], 14.3 nM; in assay [5], 10.1 nM. The koff in assay [2] was found to be 0.00541 s⁻¹; in assay [3], 0.00104 s⁻¹; in assay [4], 0.000404 s⁻¹; in assay [5] it was 0.0116 s⁻¹. In addition, the kon turned out to be 195000 M⁻¹ s⁻¹ in assay [2], 34100 M⁻¹ s⁻¹ in assay [3], 28200 M⁻¹ s⁻¹ in assay [4] and 1.14e+06 M⁻¹ s⁻¹ in assay [5].

The values are drawn from PMC11751877.
